From article PMC2819690

How the values were obtained:
[1] = molecular target: ΔN complex (Syb49–96:SyxH3:SNAP-25) (rat) (UniProt P63045); test: ITC
[2] = molecular target: ΔN complex (Syb49–96:SyxH3:SNAP-25) (rat) (UniProt P63045); test: fluorescence polarisation

Substance	Kd [1] [nM]	dH [1] [kcal/mol]	kon [2] [M⁻¹ s⁻¹]
Syb F77A (from UniProt P63045 1-96) (domain or fragment)	0.8	-18.8	–
Syb1–96 V39A, V42A, S28C, labeled (from UniProt P63045 1-96) (domain or fragment)	–	–	263000
